Experimental findings from paper PMC6765145 are described below.

Where two headings read alike, the source gives them in different places.

What all share (assay): EMSA
(Mobility shift assays separate free from complexed probe on a gel.)

In data set [1] the target is T1, Aca2 (Pectobacterium carotovorum temperate …, UniProt H9C180 1-116).
T1 sequence: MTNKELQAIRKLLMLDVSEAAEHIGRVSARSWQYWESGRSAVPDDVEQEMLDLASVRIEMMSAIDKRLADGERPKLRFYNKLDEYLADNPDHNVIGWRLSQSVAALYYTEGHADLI

Data set [2] deals with T1, Aca2. This is another data set of the same source.
Data set [3] concerns the target T1, Aca2. This is another data set of the same source.

B1: wtIR1-scIR2 promoter probe (dsDNA)
DNA 1: CACGAATGCGGCCTTAGCGATTAAAAAATATGAAATGCCTTGCTTGTTCGCGATTGCGAACATATAATTTATTCATCGGAGACTACTGCAGGTCTTCGCTCCTAACGAGGATTCCACAATGC
DNA 2: GCATTGTGGAATCCTCGTTAGGAGCGAAGACCTGCAGTAGTCTCCGATGAATAAATTATATGTTCGCAATCGCGAACAAGCAAGGCATTTCATATTTTTTAATCGCTAAGGCCGCATTCGTG
For B1, the Kd with Aca2 [1] stood at 1.07 nM.

B2: scIR1-scIR2 promoter probe (dsDNA)
DNA 1: CACGAATGCGGCCTTAGCGATTAAAAAATATGAAATGCCTTGCTTGAGACACGAGAGTCTCATATAATTTATTCATCGGAGACTACTGCAGGTCTTCGCTCCTAACGAGGATTCCACAATGC
DNA 2: GCATTGTGGAATCCTCGTTAGGAGCGAAGACCTGCAGTAGTCTCCGATGAATAAATTATATGAGACTCTCGTGTCTCAAGCAAGGCATTTCATATTTTTTAATCGCTAAGGCCGCATTCGTG
For B2, in the data set with Aca2 [2], the binding result is given as “no binding”.

B3: scIR1-wtIR2 promoter probe (dsDNA)
DNA 1: CACGAATGCGGCCTTAGCGATTAAAAAATATGAAATGCCTTGCTTGAGACACGAGAGTCTCATATAATTTATTCATCGGTTCGAGATGGCTCGAATCGCTCCTAACGAGGATTCCACAATGC
DNA 2: GCATTGTGGAATCCTCGTTAGGAGCGATTCGAGCCATCTCGAACCGATGAATAAATTATATGAGACTCTCGTGTCTCAAGCAAGGCATTTCATATTTTTTAATCGCTAAGGCCGCATTCGTG
Turning to B3, the binding result with Aca2 [3] was “no binding”.

In general, Kd refers to the concentration at which binding is half-saturated.
